Laboratory results from patent US20160166638A1, “LACTOFERRIN-OSTEOPONTIN-IRON COMPLEX” (NESTEC S.A., priority 2013, published 2016).

Assay: Colour change of iron fortified strawberry-banana yoghurt after flash pasteurization (CIELAB colorimetry)
Format: physicochemical
Conditions: colour difference vs yoghurt with no iron salts; Jogolino Strawberry/Banana yoghurt, approx. 0.8 mg iron per 100 g; flash pasteurized at 105° C. for 2 minutes
Description: Commercial yoghurt, Nestlé Jogolino™ Strawberry/Banana yoghurt containing 15% banana puree and 10% strawberry puree, was iron fortified by the addition of different iron containing materials to 5 kg yoghurt as reported in the table below. The amounts were chosen to provide approximately 0.8 mg iron per 100 g yoghurt. A 100 g serving of yoghurt with that level of iron would provide 15% of the recommended daily amount of iron for an infant [Official Journal of the European Union, Commission Directive 2006/125/EC].
For the lactoferrin-osteopontin-iron complex (Trial B), the powder from Example 1 was added to yoghurt at a level of 28 g per 5 kg yoghurt. The resulting yoghurt composition comprised 5.6 g powder per kg which is 4 g LF-OPN-Fe complex per kg.
The yoghurts were flash pasteurized at 105° C. for 2 minutes. Colour measurements were performed in 1×1 cm polystyrene cuvettes using an X-Rite ColorEye 7000A colorimeter. The colorimeter was set up with a D65 light source, 10 degree observer angle and with specular component included. The colour difference between the yoghurt with no iron salts and the iron fortified yoghurt was measured for each iron salt and expressed as ΔEab* using the CIELAB colour scale.

B1: Lactoferrin-Fe: Lactoferrin obtained from Armor proteins, supplied with some iron complexed to it; comparison fortificant (protein, UniProt P24627 20-708, looked up)
Lactotransferrin: APRKNVRWCTISQPEWFKCRRWQWRMKKLGAPSITCVRRAFALECIRAIAEKKADAVTLDGGMVFEAGRDPYKLRPVAAEIYGTKESPQTHYYAVAVVKKGSNFQLDQLQGRKSCHTGLGRSAGWIIPMGILRPYLSWTESLEPLQGAVAKFFSASCVPCIDRQAYPNLCQLCKGEGENQCACSSREPYFGYSGAFKCLQDGAGDVAFVKETTVFENLPEKADRDQYELLCLNNSRAPVDAFKECHLAQVPSHAVVARSVDGKEDLIWKLLSKAQEKFGKNKSRSFQLFGSPPGQRDLLFKDSALGFLRIPSKVDSALYLGSRYLTTLKNLRETAEEVKARYTRVVWCAVGPEEQKKCQQWSQQSGQNVTCATASTTDDCIVLVLKGEADALNLDGGYIYTAGKCGLVPVLAENRKSSKHSSLDCVLRPTEGYLAVAVVKKANEGLTWNSLKDKKSCHTAVDRTAGWNIPMGLIVNQTGSCAFDEFFSQSCAPGADPKSRLCALCAGDDQGLDKCVPNSKEKYYGYTGAFRCLAEDVGDVAFVKNDTVWENTNGESTADWAKNLNREDFRLLCLDGTRKPVTEAQSCHLAVAPNHAVVSRSDRAAHVKQVLLHQQALFGKNGKNCPDKFCLFKSETKNLLFNDNTECLAKLGGRPTYEEYLGTEYVTAIANLKKCSTSPLLEACAFLTR
modifications: iron complex
notes: Lactoferrin obtained from Armor proteins, supplied with some iron complexed to it; comparison fortificant
ΔEab*: 5.64
